Data reported in US20200317776A1 (published 2020).
Residue numbers refer to the chain shown, from its start.

B1: AL2p-40 (antibody, IgG1, V domains shown)
VH: QVQLVQSGAEVKKPGSSVKVSCKASGYAFSSHWMNWVRQAPGQGLEWMGRIYPGGGDTNYAQKFRGRVTITADESTSTAYMELSSLRSEDTAVYYCARLLRNQPGASYAMDYWGQGTLVTVSS
VL: GVVMTQTPLSLSVTPGQPASISCRTSRSLVHSNRYTYLHWYLQKPGQSPQLLIYKVSNRRSGVPDRFSGSGSGTDFTLKISRVEAEDVGVYYCSQSTRVPYTFGQGTKLEIK
notes: Fab and IgG formats under one id
B2: AL2p-39 (antibody, V domains shown)
VH: B1 VH
VL: B1 VL with T25S, R34Q
notes: as for B1
B3: AL2p-43 (antibody, V domains shown)
VH: B1 VH with Q62R
VL: B1 VL with T25S
notes: as for B1
B4: AL2p-38 (antibody, V domains shown)
VH: B1 VH
VL: B1 VL with T25S
notes: as for B1
B5: AL2p-14 (antibody, V domains shown)
VH: B1 VH with G55D, R65Q, A106E
VL: B1 VL with T25S, R34G, R60F
notes: as for B1
B6: AL2p-17 (antibody, V domains shown)
VH: B1 VH with G55D, F64R, R65Q, A106E
VL: B1 VL with G1D, T25S, R34G, R60V
notes: as for B1
B7: AL2p-33 (antibody, V domains shown)
VH: B1 VH with Q1E, H32S, G55D, R65Q, A106E
VL: B1 VL with T5A, R27Q, R34G, R60V
notes: as for B1
B8: AL2p-21 (antibody, V domains shown)
VH: B1 VH with G55D, Q62W, R65Q, A106E
VL: B1 VL with T25S, R27S, R34G, R60K
notes: as for B1
B9: AL2p-18 (antibody, V domains shown)
VH: B1 VH with G55D, F64W, R65Q, A106S
VL: B1 VL with R27Q, R34G, R60V
notes: as for B1
B10: AL2p-20 (antibody, V domains shown)
VH: B1 VH with G55D, Q62R, R65Q, A106E
VL: B1 VL with R27Q, R34G, R60V
notes: as for B1
B11: AL2p-28 (antibody, V domains shown)
VH: B1 VH with G55V, R65Q, A106E
VL: B1 VL with R27Q, R34G, R60V
notes: as for B1
B12: AL2p-24 (antibody, V domains shown)
VH: B1 VH with R65Q, A106E
VL: B1 VL with T25S, R34G, R60F
notes: as for B1
B13: AL2p-25 (antibody, V domains shown)
VH: B1 VH with A106E
VL: B1 VL with R27Q, R34G, R60V
notes: as for B1
B14: AL2p-19 (antibody, V domains shown)
VH: B1 VH with G55D, Q62R, R65Q, A106E
VL: B1 VL with G1D, T25S, R34G, R60V
notes: as for B1
B15: AL2p-22 (antibody, V domains shown)
VH: B1 VH with G55D, Q62Y, R65Q, A106E
VL: B1 VL with T25S, R34G
notes: as for B1
B16: AL2p-32 (antibody, V domains shown)
VH: B1 VH with H32E, G55D, R65Q, A106E
VL: B1 VL with T25S, R27Q, R34G
notes: as for B1
B17: AL2p-27 (antibody, V domains shown)
VH: B1 VH with G55Q, R65Q, A106E
VL: B1 VL with T25S, R34G, R60V
notes: as for B1
B18: AL2p-30 (antibody, V domains shown)
VH: B1 VH with H32Q, G55D, Q62W, R65Q, A106E
VL: B1 VL with T25S, R27S, R34G, R60K
notes: as for B1

molecular target: T1, human TREM2 expressed on cells (human, UniProt Q9NZC2 19-230); test: FACS, human DCs
T1 construct: BW5147.G.1.4 cells stably expressing human TREM2 together with Dap12, or endogenous TREM2 of primary human myeloid cells; also called huT2 BW; hTREM2 expressing cell line
T1 sequence: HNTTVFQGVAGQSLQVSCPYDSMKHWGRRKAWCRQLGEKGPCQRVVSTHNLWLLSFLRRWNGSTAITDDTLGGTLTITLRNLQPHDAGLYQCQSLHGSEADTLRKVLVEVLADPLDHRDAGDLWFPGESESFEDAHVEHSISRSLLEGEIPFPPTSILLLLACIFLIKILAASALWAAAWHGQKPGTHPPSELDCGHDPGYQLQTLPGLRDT
Text: (§1) To examine cell binding of affinity matured anti-TREM2 antibodies, both primary human monocyte derived dendritic cells and recombinant, human TREM2 expressing cells were utilized. For the latter, BW5147.G.1.4 (ATCC® TIB48™) and HEK293T cells stably expressing human TREM2 together with Dap12 using viral infection were established. For primary human monocyte derived dendritic cells, human monocytes were isolated from whole blood using RosetteSep Human monocyte enrichment cocktail (Stemcell technologies) and Ficoll centrifugation per manufacturer protocols. After lysing red blood cells with ACK lysing buffer, monocytes were resuspended in complete media (RPMI, 10% FBS, Pen/Strep, L-glutamine, HEPES, non-essential amino acid, Sodium pyruvate) with 100 ng/ml human GM-CSF (hu-GMCSF) and, human IL-4 (hu-IL-4) to differentiate dendritic cells for 6 days.
(§2) Cells were harvested by trypsinization (Hek293T) or scraping (BW and dendritic cells), washed in PBS, counted and plated on 96-well U bottom plates at […] cells/well. The plates were spun at 1,400 rpm for 3 minutes and primary TREM2 or control antibodies were added in FACS buffer (PBS+2% FBS) and incubated on ice for one hour. Cells were subsequently centrifuged as before and washed thrice with FACS buffer. Cells were then incubated with anti-human PE conjugated secondary antibody (BD Biosciences) in FACS buffer for 30 minutes on ice. Cells were again washed thrice with FACS buffer and analyzed on a BD FACS Canto or an Intellicyt Flow Cytometer. Binding was measured as mean fluorescence intensity in the APC channel.

MFI | Binder
547 MFI | B1
590 MFI | B2
1040 MFI | B3
499 MFI | B4

molecular target: T1, human TREM2 expressed on cells; test: FACS, hTREM2 BW cells
Text: as §1, §2

Kd | Binder
2.1 nM | B5
1.4 nM | B6
4.5 nM | B7
1.5 nM | B8
2.27 nM | B1
1.3 nM | B9
1.2 nM | B10
1.53 nM | B2
2.2 nM | B11
1.7 nM | B12
1.7 nM | B13
1.4 nM | B14
1.5 nM | B15
2.8 nM | B16
1.5 nM | B17
1.2 nM | B18
5.01 nM | B3
4.79 nM | B4

molecular target: T2, human TREM2 Fc fusion (entire TREM2 ECD; only one Fc arm fused to TREM2) (human, UniProt Q9NZC2 19-174); test: BLI, IgG, avid
T2 construct: also called huTREM2-Fc; recombinant hTREM2
T2 sequence: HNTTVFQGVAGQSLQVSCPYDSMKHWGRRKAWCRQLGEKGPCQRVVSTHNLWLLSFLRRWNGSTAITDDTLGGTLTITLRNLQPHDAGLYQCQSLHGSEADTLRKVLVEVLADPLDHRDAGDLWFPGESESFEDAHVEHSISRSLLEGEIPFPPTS
Description: Briefly, IgGs were loaded on-line onto AHQ sensors, Sensors were equilibrated off-line in assay buffer for 30 minutes and then monitored on-line for 60 seconds for baseline establishment. For avid binding measurement, sensors with loaded IgGs were exposed to 100 nM antigen (human or cynomolgus monkey TREM2 Fe fusion using the entire TREM2 ECD; only one Fc arm was fused to TREM2) for 3 minutes, afterwards they were transferred to assay buffer for 3 minutes for off-rate measurement. Monovalent binding measurements were obtained by loading human TREM2 Fc fusion antigens to AHQ sensor and followed by exposure to 100 nM TREM2 antibody Fab. Kinetics data were fit using a 1:1 binding model in the data analysis software provided by ForteBio. Assay was run at room temperature (25° C.).

Kd | Binder
0.315 nM | B5
0.255 nM | B6
0.889 nM | B7
0.399 nM | B8
0.229 nM | B9
0.35 nM | B10
0.417 nM | B11
0.233 nM | B12
0.22 nM | B13
0.303 nM | B14
0.219 nM | B15
1.12 nM | B16
0.274 nM | B17
0.377 nM | B18

molecular target: T3, human TREM2/DAP12 fusion protein (human, UniProt O43914 41-113, limits assumed); test: cell-based or functional assay

Luciferase activation plate bound 33 nM IgG, FOC | Luciferase activation soluble 10 nM IgG, FOC | Binder
27.1 FOC | 1.79 FOC | B5
23.8 FOC | 2.13 FOC | B6
3.21 FOC | 1.72 FOC | B7
13.1 FOC | 1.83 FOC | B8
8.46 FOC | 2.06 FOC | B9
22.4 FOC | 2.12 FOC | B10
9.27 FOC | 2.14 FOC | B11
24.1 FOC | 2.12 FOC | B12
22.3 FOC | 2.35 FOC | B13
25.9 FOC | 2.06 FOC | B14
24.9 FOC | 1.75 FOC | B15
4.9 FOC | 1.47 FOC | B16
24.4 FOC | 2.06 FOC | B17
15.8 FOC | 2.31 FOC | B18

molecular target: T2, human TREM2 Fc fusion (entire TREM2 …); test: BLI, Fab, monovalent

Kd | Binder
4.74 nM | B5
4.83 nM | B6
10.3 nM | B7
4.15 nM | B8
0.602 nM | B1
3.17 nM | B9
4.73 nM | B10
0.631 nM | B2
7.6 nM | B11
2.1 nM | B12
2.34 nM | B13
4.02 nM | B14
1.58 nM | B15
36 nM | B16
1.99 nM | B17
6.5 nM | B18
0.493 nM | B3
0.623 nM | B4

Molecular target: T4, cynomolgus monkey TREM2 Fc fusion (entire TREM2 ECD; only one Fc arm fused to TREM2) (cynomolgus monkey, UniProt Q9NZC2 19-174 (human entry))
T4 construct: also called cyno TREM2-Fc
T4 chain: T2 sequence with A10E, W60R, L89F, F125V
Test: BLI, Fab, monovalent

Kd | Binder
4.66 nM | B5
4.62 nM | B6
0.884 nM | B7
3.84 nM | B8
0.37 nM | B1
2.73 nM | B9
4.72 nM | B10
0.346 nM | B2
7.91 nM | B11
1.63 nM | B12
1.76 nM | B13
4.01 nM | B14
1.28 nM | B15
34.8 nM | B16
1.82 nM | B17
5.66 nM | B18
0.36 nM | B3
0.37 nM | B4

molecular target: T1, human TREM2 expressed on cells; test: cell-based or functional assay

Binder | DC viability (AUC) | Mac viability (AUC)
B1 | 825000 AUC | 63200 AUC
B2 | 851000 AUC | 66900 AUC
B4 | 786000 AUC | 39000 AUC

molecular target: T3, human TREM2/DAP12 fusion protein; test: cell-based or functional assay; remark: another data set of the same source

BW Luc assay plate bound 7.3 nM IgG, FOC | BW Luc assay soluble 7.3 nM IgG, FOC | Binder
8.49 FOC | 9.92 FOC | B1
8.12 FOC | 3.81 FOC | B2
5.41 FOC | 8.84 FOC | B3
4.47 FOC | 4.98 FOC | B4
